{
  "source": "patent US20090136547A1",
  "about": "“ZWITTERIONIZATION OF CAPSULAR SACCHARIDES” (NOVARTIS VACCINES AND DIAGNOSTICS SRL, priority 2005, published 2009)",
  "biological_target": "T1, TLR2 receptor (Homo sapiens, UniProt O60603)",
  "T1 construct": "endogenous in cells; host or cells: purified monocytes",
  "T1 sequence (O60603 21-784)": "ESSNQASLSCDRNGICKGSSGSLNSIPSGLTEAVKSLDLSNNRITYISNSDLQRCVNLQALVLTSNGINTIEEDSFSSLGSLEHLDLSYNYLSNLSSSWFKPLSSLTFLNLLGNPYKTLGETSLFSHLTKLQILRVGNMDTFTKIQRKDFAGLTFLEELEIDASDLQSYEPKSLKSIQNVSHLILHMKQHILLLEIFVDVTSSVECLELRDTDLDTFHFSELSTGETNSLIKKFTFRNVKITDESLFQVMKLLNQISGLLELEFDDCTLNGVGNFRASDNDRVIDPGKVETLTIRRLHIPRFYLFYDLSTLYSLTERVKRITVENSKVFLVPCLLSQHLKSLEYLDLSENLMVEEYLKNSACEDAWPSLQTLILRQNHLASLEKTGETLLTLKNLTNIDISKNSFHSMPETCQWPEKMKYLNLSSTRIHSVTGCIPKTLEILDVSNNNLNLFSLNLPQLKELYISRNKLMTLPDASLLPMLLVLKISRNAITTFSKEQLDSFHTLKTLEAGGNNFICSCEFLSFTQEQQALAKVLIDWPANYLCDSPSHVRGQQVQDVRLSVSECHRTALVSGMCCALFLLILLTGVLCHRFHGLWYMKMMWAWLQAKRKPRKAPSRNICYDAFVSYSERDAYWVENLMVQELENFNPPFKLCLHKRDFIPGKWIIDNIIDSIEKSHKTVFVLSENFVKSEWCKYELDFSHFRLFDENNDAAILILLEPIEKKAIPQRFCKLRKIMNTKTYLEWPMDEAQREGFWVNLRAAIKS",
  "assay": "Monocyte activation (TNFα, CD80/MHC-II) in absence or presence of anti-TLR2 antibody",
  "type": "cell-based",
  "details": "FIG. 29 and FIG. 30",
  "note": "Ends that are not written are not given here. * marks the point of attachment. Palmitoyl = CCCCCCCCCCCCCCCC(=O)*",
  "data": [
    {"substance": "N-palmitoyl-S-[2,3-bis(palmitoyloxy)-(2R,S)-propyl]-(R)-cysteinyl-seryl-(lysyl)(3)-lysine (Palmitoyl-C(2,3‑bis(palmitoyloxy)‑(2R,S)‑propyl)SKKKK) [PAMcsk, synthetic lipopeptide positive control]", "values": [
      {"measurement": "effect of anti-TLR2 antibody on activation (TNFα assay, CD80/MHC-II assay)", "value": "able to block activation"}
    ]}
  ]
}
